Results published in the supplement of paper PMC10567573.

B1: ZNF649 (parent)
chain: YHTGKTPFVCPECGQPCSQKSGLI
B2: KRT18 (parent)
chain: RVRSLETENRRLESKIREHLEKKG

Variants of: B1
Test: protein stability index of a GFP-peptide fusion (GPS, HEK-293T) (PSI 1-6); higher = more stable
Conditions: c terminus: a fixed tail appended
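Note: lentivirally expressed fusions sorted by FACS into six bins by GFP to DsRed ratio, PSI derived from sequencing read proportions per bin multiplied by bin number.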

Protein stability index, by site and new letter:
T3: L 1.76; K 2.87; W 1.48; C 2.38; P 1.61; Y 1.27
H2: E 3.55; N 2.39; G 1.98; D 3.69; V 1.96; I 2.36; M 2.51; W 2.06
V9: Y 3.65; D 2.39; Q 2.02; K 1.58; E 1.61; H 2.47; I 2.38; L 2.99; G 1.79; R 2.24; F 3.17
Q15: N 3.41; G 1.45; K 2.35; I 1.62; H 2.23; S 2.21; W 1.83; T 2.35; E 2.65
S18: I 2.47; M 3.02; L 1.85; H 1.26; C 2.08; K 1.46
G22: P 2.91; M 1.87; Y 3; T 1.65; A 1.81; H 2.72; F 2.34; E 2.32; C 2.19; L 2.97; D 1.49; R 2.22
C13: D 2.6; S 1.62; N 1.83; K 3.33; F 2.8; Y 3.41; T 2.99; M 2.98

Variants of: B2
Test: as above
Conditions: c terminus: a fixed tail appended

Protein stability index, by site and new letter:
T7: Y 4.47; Q 4.13; R 4.1; E 5.17; S 4.25; N 4.34; L 4.54; F 4.79; M 4.05; G 4.22; C 4.97; D 4.17; V 3.82; P 4.9
R3: T 4.46; H 3.61; C 3.42; I 3.91; W 3.43; L 4.51; G 4.64; V 4.44; E 4.85; Q 4.37; A 4.51; Y 3.15; F 3.46; P 4.42; D 4.22; M 3.72; K 4.45
V2: L 3.55; H 4.07; W 3.9; Y 4.54; P 4.65; D 4.83; E 5.32; K 4.77; N 4.16; Q 4.44; C 4.78; A 4.64; T 5.11; M 3.82; I 4.21
E8: C 4.22; D 3.96; I 4.4; H 4.36; A 4.08; L 4.33; K 3.89; G 4.42
S4: H 3.84; I 2.97; F 4.29; P 4.58; E 4.48; V 3.54; N 4.32; R 4.29; M 3.64; A 4.24; Y 3.3; C 3.5; K 4.26; G 4.35
R1: D 4.9; Q 4.7; P 4.45; M 4.09; F 1.21; C 4.66; I 3.38; H 4.14; K 3.94; G 4.36; E 3.5; V 4.19; Y 1.78; N 4.56
L5: Q 4.67; A 4.54; Y 4.32; K 3.99; N 5.06; M 4.77; T 4.35; C 3.41; F 4.5; D 4.64; V 5.01; W 4.29
E6: I 3.84; R 3.96; F 3.32; L 2.31; N 3.33; P 4.44; D 4.62; Y 2.53; K 4.02; T 3.01; M 3.4; V 4.11; C 4.43
